Biological target: the molecule itself
Experiment: cryo-EM structure

B1: human ABCG2 E211Q mutant (ABCG2EQ) (natural protein)
chain: MSSSNVEVFIPVSQGNTNGFPATASNDLKAFTEGAVLSFHNICYRVKLKSGFLPCRKPVEKEILSNINGIMKPGLNAILGPTGGGKSSLLDVLAARKDPSGLSGDVLINGAPRPANFKCNSGYVVQDDVVMGTLTVRENLQFSAALRLATTMTNHEKNERINRVIQELGLDKVADSKVGTQFIRGVSGGERKRTSIGMELITDPSILFLDQPTTGLDSSTANAVLLLLKRMSKQGRTIIFSIHQPRYSIFKLFDSLTLLASGRLMFHGPAQEALGYFESAGYHCEAYNNPADFFLDIINGDSTAVALNREEDFKATEIIEPSKQDKPLIEKLAEIYVNSSFYKETKAELHQLSGGEKKKKITVFKEISYTTSFCHQLRWVSKRSFKNLLGNPQASIAQIIVTVVLGLVIGAIYFGLKNDSTGIQNRAGVLFFLTTNQCFSSVSAVELFVVEKKLFIHEYISGYYRVSSYFLGKLLSDLLPMRMLPSIIFTCIVYFMLGLKPKADAFFVMMFTLMMVAYSASSMALAIAAGQSVVSVATLLMTICFVFMMIFSGLLVNLTTIASWLSWLQYFSIPRYGFTALQHNEFLGQNFCPGLNATGNNPCNYATCTGEEYLVKQGIDLSPWGLWKNHVALACMIVIFLTIAYLKLLFLKKYS
binding result: binds
